Publication doi:10.1101/2024.09.20.612365, “Preventing Inappropriate Signals Pre- and Post-Ligand Perception by a Toggle-Switch Mechanism of ERECTA” (bioRxiv, 2024)
Where two headings read alike, the source gives them in different places. Values belong to the molecule of their own block, whether it stands above or below them.

B2: MBP-fused full-length ER cytoplasmic domain (MBP-ER_CD) (domain or fragment, Arabidopsis, UniProt Q42371 602-976, looked up)
chain: CRPHNPPPFLDGSLDKPVTYSTPKLVILHMNMALHVYEDIMRMTENLSEKYIIGHGASSTVYKCVLKNCKPVAIKRLYSHNPQSMKQFETELEMLSSIKHRNLVSLQAYSLSHLGSLLFYDYLENGSLWDLLHGPTKKKTLDWDTRLKIAYGAAQGLAYLHHDCSPRIIHRDVKSSNILLDKDLEARLTDFGIAKSLCVSKSHTSTYVMGTIGYIDPEYARTSRLTEKSDVYSYGIVLLELLTRRKAVDDESNLHHLIMSKTGNNEVMEMADPDITSTCKDLGVVKKVFQLALLCTKRQPNDRPTMHQVTRVLGSFMLSEQPPAATDTSATLAGSCYVDEYANLKTPHSVNCSSMSASDAQLFLRFGQVISQNSE
notes: ERECTA (ER) LRR receptor kinase, Arabidopsis; full-length cytoplasmic domain (juxtamembrane domain, kinase domain, C-terminal tail); source: expressed and purified (recombinantly purified)

Assays:
[1] = target: GST-BKI1 (BRI1 KINASE INHIBITOR 1) (Arabidopsis) (UniProt Q9FMZ0); assay: BLI; recombinantly purified GST-BKI1 or GST-PUB30 and MBP-ER_CD variants at seven concentrations (156.25, 312.5, 625, 1,250, 2,500, 5,000 and 10,000 nM); representative of three independent experiments
[2] = target: T1, GST-PUB30 (plant U-box E3 ligase PUB30) (Arabidopsis, UniProt Q058P4 1-448); assay: as above
T1 construct: U-box E3 ubiquitin ligase PUB30, Arabidopsis; source: recombinantly purified
T1 sequence (looked up): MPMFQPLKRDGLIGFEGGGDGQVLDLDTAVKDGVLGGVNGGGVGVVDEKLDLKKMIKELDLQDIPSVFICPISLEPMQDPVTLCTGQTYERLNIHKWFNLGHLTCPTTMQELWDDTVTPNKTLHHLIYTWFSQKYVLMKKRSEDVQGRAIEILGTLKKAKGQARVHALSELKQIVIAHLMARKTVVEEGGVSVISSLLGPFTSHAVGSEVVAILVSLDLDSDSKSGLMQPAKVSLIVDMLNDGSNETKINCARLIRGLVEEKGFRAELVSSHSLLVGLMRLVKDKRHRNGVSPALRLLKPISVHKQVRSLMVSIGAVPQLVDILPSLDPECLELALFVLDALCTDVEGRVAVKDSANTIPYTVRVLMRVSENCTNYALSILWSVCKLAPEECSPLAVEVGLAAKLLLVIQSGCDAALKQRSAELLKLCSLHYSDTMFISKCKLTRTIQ

[3] = target: T2, MBP-ER_CD_(T/S8E), phosphomimetic version (Arabidopsis, UniProt Q42371 602-976, Thr947 (T/S8E) | Ser950 (T/S8E) | Ser954 (T/S8E) | Ser955 (T/S8E) | Ser957 …); assay: BLI
T2 sequence: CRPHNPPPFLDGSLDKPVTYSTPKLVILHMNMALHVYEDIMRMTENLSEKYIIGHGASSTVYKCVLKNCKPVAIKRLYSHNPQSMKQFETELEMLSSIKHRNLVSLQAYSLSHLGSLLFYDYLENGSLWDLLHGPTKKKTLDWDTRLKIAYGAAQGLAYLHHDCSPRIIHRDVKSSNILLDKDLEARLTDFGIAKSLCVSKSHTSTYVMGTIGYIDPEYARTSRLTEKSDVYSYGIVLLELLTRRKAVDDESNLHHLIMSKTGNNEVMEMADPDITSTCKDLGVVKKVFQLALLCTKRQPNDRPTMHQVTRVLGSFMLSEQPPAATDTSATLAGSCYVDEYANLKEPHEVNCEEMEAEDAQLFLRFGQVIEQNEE

[4] = target: T3, MBP-ER_CD_(T/S8A), phosphonull version (Arabidopsis, UniProt Q42371 602-976, Thr947 (T/S8A) | Ser950 (T/S8A) | Ser954 (T/S8A) | Ser955 (T/S8A) | Ser957 …); assay: BLI
T3 sequence: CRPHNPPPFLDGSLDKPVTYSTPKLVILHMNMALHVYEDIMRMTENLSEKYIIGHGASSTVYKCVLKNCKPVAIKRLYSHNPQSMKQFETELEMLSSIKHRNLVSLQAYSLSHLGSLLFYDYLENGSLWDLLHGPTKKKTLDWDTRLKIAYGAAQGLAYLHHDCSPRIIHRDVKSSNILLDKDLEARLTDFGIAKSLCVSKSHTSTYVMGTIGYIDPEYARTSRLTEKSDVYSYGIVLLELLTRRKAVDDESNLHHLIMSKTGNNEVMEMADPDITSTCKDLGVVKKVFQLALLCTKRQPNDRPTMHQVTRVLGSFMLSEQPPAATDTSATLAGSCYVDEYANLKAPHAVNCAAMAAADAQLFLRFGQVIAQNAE

[5] = target: B2; assay: BLI; recombinantly purified GST-BKI1 or GST-PUB30 and MBP-ER_CD variants at seven concentrations (156.25, 312.5, 625, 1,250, 2,500, 5,000 and 10,000 nM); representative of three independent experiments; details: both partners purified
[6] = target: T4, MBP-ER_CD_(T/S8A), phosphonull version (Arabidopsis, UniProt Q42371 602-976, Thr947 (T/S8A) | Ser950 (T/S8A) | Ser954 (T/S8A) | Ser955 (T/S8A) | Ser957 …); assay: as above; details: both partners purified
T4 construct: ERECTA (ER), Arabidopsis; The eight sites: six detected (Thr947, Ser950, Ser954, Ser955, Ser957, Ser972); source: recombinantly purified
T4 sequence (looked up): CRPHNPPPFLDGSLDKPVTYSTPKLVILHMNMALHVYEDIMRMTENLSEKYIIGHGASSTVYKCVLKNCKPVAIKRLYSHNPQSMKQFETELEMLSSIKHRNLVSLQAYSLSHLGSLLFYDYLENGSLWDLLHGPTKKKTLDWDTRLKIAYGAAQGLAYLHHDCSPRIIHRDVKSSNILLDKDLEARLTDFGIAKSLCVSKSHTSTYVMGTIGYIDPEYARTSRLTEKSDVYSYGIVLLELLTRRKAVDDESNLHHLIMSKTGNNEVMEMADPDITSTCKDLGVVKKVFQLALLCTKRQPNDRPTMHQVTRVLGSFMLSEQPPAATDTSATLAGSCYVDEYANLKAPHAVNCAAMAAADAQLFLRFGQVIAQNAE

Molecule: B2
Kd ([2]; both partners purified): 0.393 ± 0.048 µM

B3: GST-BKI1 (BRI1 KINASE INHIBITOR 1) (natural protein, Arabidopsis, UniProt Q9FMZ0 1-337, looked up)
chain: METNLQQVKNSSQTFSEKQNPKQEASPSPISSTCSSPSHDFSFTISLQPLSSSSKHISPTLRSPSKTTSSYQQTDPFAVDLSPADEIFFHGHLLPLHLLSHLPVSPRTSTGSYNDGFTLPVKDILPDQPTNNNNNTENAITNISTEAKDDNTEDKAEGEIRVKTKPIKSFSLFGLSKWRKGFESNEREQEQQQQKIKKPMSLDLSHAVKKYIRMLFQKRGNGTQFWNRRQTSSYSFSSSLMGPNGNSKTMINGSYNKRDLIRGRRGELFSAPASMRTSPTNSGHLRVSTAGLSSSSGSTSSSSSDSTMEELQAAIQAAIAHCKNSSAVDRDDKVKDS
notes: source: recombinantly purified
Kd [5]: 3.7 ± 0.7 µM
binding result [6]: binds
Kd [3]: 18 µM
Kd [4]: 3.8 µM

Now from value to molecule:

Kd [1]: 47.7 µM
Kd [2]: 0.805 µM
Molecule: MBP-ER_CD_(ΔCTα-Helix) (domain or fragment)

Kd [3]: 0.194 µM
Kd [4]: 9.5 µM
B1: GST-PUB30 (plant U-box E3 ligase PUB30) (enzyme)
chain: MPMFQPLKRDGLIGFEGGGDGQVLDLDTAVKDGVLGGVNGGGVGVVDEKLDLKKMIKELDLQDIPSVFICPISLEPMQDPVTLCTGQTYERLNIHKWFNLGHLTCPTTMQELWDDTVTPNKTLHHLIYTWFSQKYVLMKKRSEDVQGRAIEILGTLKKAKGQARVHALSELKQIVIAHLMARKTVVEEGGVSVISSLLGPFTSHAVGSEVVAILVSLDLDSDSKSGLMQPAKVSLIVDMLNDGSNETKINCARLIRGLVEEKGFRAELVSSHSLLVGLMRLVKDKRHRNGVSPALRLLKPISVHKQVRSLMVSIGAVPQLVDILPSLDPECLELALFVLDALCTDVEGRVAVKDSANTIPYTVRVLMRVSENCTNYALSILWSVCKLAPEECSPLAVEVGLAAKLLLVIQSGCDAALKQRSAELLKLCSLHYSDTMFISKCKLTRTIQ

binding result ([2]; both partners purified): binds
B4: MBP-ER_CD_(T/S8E), phosphomimetic version (domain or fragment, Arabidopsis, UniProt Q42371 602-976, looked up)
chain: CRPHNPPPFLDGSLDKPVTYSTPKLVILHMNMALHVYEDIMRMTENLSEKYIIGHGASSTVYKCVLKNCKPVAIKRLYSHNPQSMKQFETELEMLSSIKHRNLVSLQAYSLSHLGSLLFYDYLENGSLWDLLHGPTKKKTLDWDTRLKIAYGAAQGLAYLHHDCSPRIIHRDVKSSNILLDKDLEARLTDFGIAKSLCVSKSHTSTYVMGTIGYIDPEYARTSRLTEKSDVYSYGIVLLELLTRRKAVDDESNLHHLIMSKTGNNEVMEMADPDITSTCKDLGVVKKVFQLALLCTKRQPNDRPTMHQVTRVLGSFMLSEQPPAATDTSATLAGSCYVDEYANLKEPHEVNCEEMEAEDAQLFLRFGQVIEQNEE
notes: ERECTA (ER), Arabidopsis; source: recombinantly purified
